Results reported in US20150344570A1 (published 2015).

Assays:
[1] = target: T1, FcγRIIIa extracellular domain with C-terminal His tag (human, UniProt P08637 17-208); assay: SPR (Biacore), antibody captured on antigen peptide chip, FcγR as analyte; GpH7-A5/GpH7-B3/GpL16-k0 = 100
T1 construct: extracellular domain; also called FcgRIIIa; 3a
Experimental: (§1) The heterodimerized antibodies He Abs in which one of the H chains was introduced with an alteration were assayed for their binding activities to each activating FcγR and inhibitory FcγR according to the method described in Example 4. […] The activating FcγRs in FIGS. 26, 27, 28, and 29 are FcγRIa, FcγRIIa (R), FcγRIIa (H), and FcγRIIIa, respectively.
(§2) Analysis of interaction between objective antibody and the FcγR was carried out using Biacore T100 (GE Healthcare). HBS-EP+ (GE Healthcare) was used as the running buffer, and the measurement temperature was set to 25° C. Chips produced by immobilizing the antigen peptide by the amine coupling method to a Series S Sencor Chip CM5 (GE Healthcare), or alternatively, chips produced by allowing preliminarily biotinylated antigen peptides to interact with and immobilize onto a Series S Sensor Chip SA (certified) (GE Healthcare) were used. Antibodies of interest were captured onto an antigen peptide-immobilized chip, and allowed to interact to each FcγR diluted with running buffer. To regenerate and repeatedly use the chip, the antibodies captured on the chip were washed off by reacting 10 mM glycine-HCl, pH 1.5.
T1 sequence (P08637 17-208): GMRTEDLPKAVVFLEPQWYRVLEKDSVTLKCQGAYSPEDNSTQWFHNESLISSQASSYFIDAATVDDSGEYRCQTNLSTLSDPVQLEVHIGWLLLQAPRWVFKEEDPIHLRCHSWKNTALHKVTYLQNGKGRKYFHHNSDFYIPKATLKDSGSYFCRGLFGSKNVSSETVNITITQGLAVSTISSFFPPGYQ

[2] = target: T1, FcγRIIIa extracellular domain with …; assay: SPR (Biacore); He/Con_3a divided by He/Con_2b (FcγRIIIa against FcγRIIb)
Experimental: as §1, §2

[3] = target: T2, FcγRIIa R (human, UniProt P12318 34-217); assay: SPR; He/Con_2aR divided by He/Con_2b (FcγRIIa R over FcγRIIb)
T2 construct: extracellular domain; also called FcgRIIa R type; 2aR; not shown: His tag at the C terminus
T2 sequence (looked up): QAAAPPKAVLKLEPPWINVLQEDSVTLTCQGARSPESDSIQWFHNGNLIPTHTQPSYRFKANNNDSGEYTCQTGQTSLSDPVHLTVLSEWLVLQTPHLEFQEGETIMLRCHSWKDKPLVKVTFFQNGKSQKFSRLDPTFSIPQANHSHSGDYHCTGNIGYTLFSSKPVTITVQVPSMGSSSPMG

[4] = target: T2, FcγRIIa R; assay: SPR, relative to GpH7-A5/GpH7-B3/GpL16-k0
[5] = target: T3, FcγRIIb (human, UniProt P31994 43-217); assay: SPR, relative to GpH7-A5/GpH7-B3/GpL16-k0
T3 construct: extracellular domain; also called FcgRIIb; 2b; not shown: His tag at the C terminus
T3 sequence (looked up): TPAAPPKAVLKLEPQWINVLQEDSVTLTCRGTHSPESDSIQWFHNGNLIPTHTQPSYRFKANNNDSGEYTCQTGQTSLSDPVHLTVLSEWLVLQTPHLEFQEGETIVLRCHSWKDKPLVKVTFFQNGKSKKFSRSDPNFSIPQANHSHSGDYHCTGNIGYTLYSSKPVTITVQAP

[6] = target: T4, FcγRIIIa extracellular domain with C-terminal His tag (human, UniProt P08637 17-208); assay: SPR (Biacore); He/Con_3a divided by He/Con_2b (FcγRIIb)
T4 construct: extracellular domain; also called FcgRIIIa; 3a; not shown: His tag at the C terminus
T4 sequence (P08637 17-208): as the sequence (P08637 17-208) above

[7] = target: T4, FcγRIIIa extracellular domain with …; assay: SPR (Biacore), FcγR as analyte over captured antibody; GpH7-A5/GpH7-B3/GpL16-k0 = 100
Experimental: as §1, §2

B1: GpH7-A5/GpH7-B3 variant L328_11K/GpL16-k0 (antibody, human IgG1, kappa)
heavy 1: not shown
heavy 2: not shown
light: DIVMTQSPLSLPVTPGEPASISCQASESLVHSNRNTYLHWYLQKPGQSPQLLIYKVSNRFSGVPDRFSGSGSGTDFTLKISRVEAEDVGVYYCSQNTHVPPTFGQGTKVEIERTVAAPSVFIFPPSDEQLKSGTASVVCLLNNFYPREAKVQWKVDNALQSGNSQESVTEQDSKDSTYSLSSTLTLSKADYEKHKVYACEVTHQGLSSPVTKSFNRGEC
notes: Heterodimerized anti-glypican-3 IgG1; mutation in the GpH7-B3 chain only; also called He Ab
He/Con_3a (relative binding activity) [1]: 33.5 % of control | He_3a/2b (IIIa/IIb) [2]: 4.46 ratio

B2: GpH7-A5/GpH7-B3 variant S267_08L/GpL16-k0 (antibody, human IgG1, kappa)
heavy 1: not shown
heavy 2: not shown
light: DIVMTQSPLSLPVTPGEPASISCQASESLVHSNRNTYLHWYLQKPGQSPQLLIYKVSNRFSGVPDRFSGSGSGTDFTLKISRVEAEDVGVYYCSQNTHVPPTFGQGTKVEIERTVAAPSVFIFPPSDEQLKSGTASVVCLLNNFYPREAKVQWKVDNALQSGNSQESVTEQDSKDSTYSLSSTLTLSKADYEKHKVYACEVTHQGLSSPVTKSFNRGEC
notes: as for B1
He_2aR/2b [3]: 0.66 ratio | He/Con_2aR [4]: 72.1 control = 100 | He/Con_2b [5]: 109 control = 100

B3: GpH7-A5/GpH7-B3 variant A327_10E/GpL16-k0 (antibody, human IgG1, kappa)
heavy 1: not shown
heavy 2: not shown
light: DIVMTQSPLSLPVTPGEPASISCQASESLVHSNRNTYLHWYLQKPGQSPQLLIYKVSNRFSGVPDRFSGSGSGTDFTLKISRVEAEDVGVYYCSQNTHVPPTFGQGTKVEIERTVAAPSVFIFPPSDEQLKSGTASVVCLLNNFYPREAKVQWKVDNALQSGNSQESVTEQDSKDSTYSLSSTLTLSKADYEKHKVYACEVTHQGLSSPVTKSFNRGEC
notes: as for B1
He_2aR/2b [3]: 0.78 ratio | He/Con_2aR [4]: 110 control = 100 | He/Con_2b [5]: 140 control = 100

B4: GpH7-A5/GpH7-B3 variant L328_12R/GpL16-k0 (antibody, human IgG1, kappa)
heavy 1: not shown
heavy 2: not shown
light: DIVMTQSPLSLPVTPGEPASISCQASESLVHSNRNTYLHWYLQKPGQSPQLLIYKVSNRFSGVPDRFSGSGSGTDFTLKISRVEAEDVGVYYCSQNTHVPPTFGQGTKVEIERTVAAPSVFIFPPSDEQLKSGTASVVCLLNNFYPREAKVQWKVDNALQSGNSQESVTEQDSKDSTYSLSSTLTLSKADYEKHKVYACEVTHQGLSSPVTKSFNRGEC
notes: as for B1
He/Con_3a (relative binding activity) [1]: 32.7 % of control | He_3a/2b (IIIa/IIb) [2]: 3.53 ratio

B5: GpH7-A5/GpH7-B3 variant G236_09D/GpL16-k0 (antibody, human IgG1, kappa)
heavy 1: not shown
heavy 2: not shown
light: DIVMTQSPLSLPVTPGEPASISCQASESLVHSNRNTYLHWYLQKPGQSPQLLIYKVSNRFSGVPDRFSGSGSGTDFTLKISRVEAEDVGVYYCSQNTHVPPTFGQGTKVEIERTVAAPSVFIFPPSDEQLKSGTASVVCLLNNFYPREAKVQWKVDNALQSGNSQESVTEQDSKDSTYSLSSTLTLSKADYEKHKVYACEVTHQGLSSPVTKSFNRGEC
notes: as for B1
He_2aR/2b [3]: 0.64 ratio | He/Con_2aR [4]: 106 control = 100 | He/Con_2b [5]: 167 control = 100

B6: GpH7-A5/GpH7-B3 variant A327_12R/GpL16-k0 (antibody, human IgG1, kappa)
heavy 1: not shown
heavy 2: not shown
light: DIVMTQSPLSLPVTPGEPASISCQASESLVHSNRNTYLHWYLQKPGQSPQLLIYKVSNRFSGVPDRFSGSGSGTDFTLKISRVEAEDVGVYYCSQNTHVPPTFGQGTKVEIERTVAAPSVFIFPPSDEQLKSGTASVVCLLNNFYPREAKVQWKVDNALQSGNSQESVTEQDSKDSTYSLSSTLTLSKADYEKHKVYACEVTHQGLSSPVTKSFNRGEC
notes: as for B1
He_2aR/2b [3]: 0.67 ratio | He/Con_2aR [4]: 6 control = 100 | He/Con_2b [5]: 9 control = 100

B7: GpH7-A5/GpH7-B3 variant D270_05P/GpL16-k0 (antibody, human IgG1, kappa)
heavy 1: not shown
heavy 2: not shown
light: DIVMTQSPLSLPVTPGEPASISCQASESLVHSNRNTYLHWYLQKPGQSPQLLIYKVSNRFSGVPDRFSGSGSGTDFTLKISRVEAEDVGVYYCSQNTHVPPTFGQGTKVEIERTVAAPSVFIFPPSDEQLKSGTASVVCLLNNFYPREAKVQWKVDNALQSGNSQESVTEQDSKDSTYSLSSTLTLSKADYEKHKVYACEVTHQGLSSPVTKSFNRGEC
notes: as for B1
He_2aR/2b [3]: 0.54 ratio | He/Con_2aR [4]: 7.5 control = 100 | He/Con_2b [5]: 13.9 control = 100

B8: GpH7-A5/GpH7-B3 variant A327_18N/GpL16-k0 (antibody, human IgG1, kappa)
heavy 1: not shown
heavy 2: not shown
light: DIVMTQSPLSLPVTPGEPASISCQASESLVHSNRNTYLHWYLQKPGQSPQLLIYKVSNRFSGVPDRFSGSGSGTDFTLKISRVEAEDVGVYYCSQNTHVPPTFGQGTKVEIERTVAAPSVFIFPPSDEQLKSGTASVVCLLNNFYPREAKVQWKVDNALQSGNSQESVTEQDSKDSTYSLSSTLTLSKADYEKHKVYACEVTHQGLSSPVTKSFNRGEC
notes: as for B1
He_2aR/2b [3]: 0.79 ratio | He/Con_2aR [4]: 88.9 control = 100 | He/Con_2b [5]: 113 control = 100

B9: GpH7-A5/GpH7-B3 variant G237_20W/GpL16-k0 (antibody, human IgG1, kappa)
heavy 1: not shown
heavy 2: not shown
light: DIVMTQSPLSLPVTPGEPASISCQASESLVHSNRNTYLHWYLQKPGQSPQLLIYKVSNRFSGVPDRFSGSGSGTDFTLKISRVEAEDVGVYYCSQNTHVPPTFGQGTKVEIERTVAAPSVFIFPPSDEQLKSGTASVVCLLNNFYPREAKVQWKVDNALQSGNSQESVTEQDSKDSTYSLSSTLTLSKADYEKHKVYACEVTHQGLSSPVTKSFNRGEC
notes: as for B1
He_2aR/2b [3]: 0.71 ratio | He/Con_2aR [4]: 138 control = 100 | He/Con_2b [5]: 193 control = 100

B10: GpH7-A5/GpH7-B3 variant G237_09D/GpL16-k0 (antibody, human IgG1, kappa)
heavy 1: not shown
heavy 2: not shown
light: DIVMTQSPLSLPVTPGEPASISCQASESLVHSNRNTYLHWYLQKPGQSPQLLIYKVSNRFSGVPDRFSGSGSGTDFTLKISRVEAEDVGVYYCSQNTHVPPTFGQGTKVEIERTVAAPSVFIFPPSDEQLKSGTASVVCLLNNFYPREAKVQWKVDNALQSGNSQESVTEQDSKDSTYSLSSTLTLSKADYEKHKVYACEVTHQGLSSPVTKSFNRGEC
notes: as for B1
He_2aR/2b [3]: 0.7 ratio | He/Con_2aR [4]: 156 control = 100 | He/Con_2b [5]: 223 control = 100

B11: GpH7-A5/GpH7-B3 variant Y300_05P/GpL16-k0 (antibody, human IgG1, kappa)
heavy 1: not shown
heavy 2: not shown
light: DIVMTQSPLSLPVTPGEPASISCQASESLVHSNRNTYLHWYLQKPGQSPQLLIYKVSNRFSGVPDRFSGSGSGTDFTLKISRVEAEDVGVYYCSQNTHVPPTFGQGTKVEIERTVAAPSVFIFPPSDEQLKSGTASVVCLLNNFYPREAKVQWKVDNALQSGNSQESVTEQDSKDSTYSLSSTLTLSKADYEKHKVYACEVTHQGLSSPVTKSFNRGEC
notes: Heterodimerized IgG1 antibody; alteration in the GpH7-B3 chain only; also called He Ab
He_3a/2b (IIIa/IIb) [6]: 0.38 ratio | He/Con_3a [7]: 2.8 % of control

B12: GpH7-A5/GpH7-B3 variant A327_07I/GpL16-k0 (antibody, human IgG1, kappa)
heavy 1: not shown
heavy 2: not shown
light: DIVMTQSPLSLPVTPGEPASISCQASESLVHSNRNTYLHWYLQKPGQSPQLLIYKVSNRFSGVPDRFSGSGSGTDFTLKISRVEAEDVGVYYCSQNTHVPPTFGQGTKVEIERTVAAPSVFIFPPSDEQLKSGTASVVCLLNNFYPREAKVQWKVDNALQSGNSQESVTEQDSKDSTYSLSSTLTLSKADYEKHKVYACEVTHQGLSSPVTKSFNRGEC
notes: as for B1
He_2aR/2b [3]: 0.77 ratio | He/Con_2aR [4]: 98 control = 100 | He/Con_2b [5]: 127 control = 100

B13: GpH7-A5/GpH7-B3 variant A327_09D/GpL16-k0 (antibody, human IgG1, kappa)
heavy 1: not shown
heavy 2: not shown
light: DIVMTQSPLSLPVTPGEPASISCQASESLVHSNRNTYLHWYLQKPGQSPQLLIYKVSNRFSGVPDRFSGSGSGTDFTLKISRVEAEDVGVYYCSQNTHVPPTFGQGTKVEIERTVAAPSVFIFPPSDEQLKSGTASVVCLLNNFYPREAKVQWKVDNALQSGNSQESVTEQDSKDSTYSLSSTLTLSKADYEKHKVYACEVTHQGLSSPVTKSFNRGEC
notes: as for B1
He_2aR/2b [3]: 0.72 ratio | He/Con_2aR [4]: 124 control = 100 | He/Con_2b [5]: 172 control = 100
